# Measured values taken from the supplement of paper PMC10567573.
# B1: ZC3H15 (parent)
# chain: ENLFTGEDLDELEEELNTLDLEE
# Variants of: B1
# Experiment: protein stability index of a GFP-peptide fusion (GPS, HEK-293T) (PSI 1-6); higher = more stable
# Settings: c terminus: native
# 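Note: lentivirally expressed fusions sorted by FACS into six bins by GFP to DsRed ratio, PSI derived from sequencing read proportions per bin multiplied by bin number.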
row,Variant,protein stability index
1,ENLFTGEDLDELEEELWTLDLEE [N17W],2.69
2,ENLFTGEDLDELEEELTTLDLEE [N17T],3.66
3,ENLFTGEDLDELEEELMTLDLEE [N17M],3.5
4,ENLFTGEDLDELEEELVTLDLEE [N17V],3.5
5,ENLFTGEDLDELEEELQTLDLEE [N17Q],4.06
6,ENLFTGEDLDELEEELCTLDLEE [N17C],3.64
7,ENLFTGEDLDELEEELSTLDLEE [N17S],4.45
8,ENLFTGEDLDELEEELETLDLEE [N17E],4.89
9,ENLFTGEDLDELEEELKTLDLEE [N17K],5.18
10,ENLFTGEDLDELEEELITLDLEE [N17I],3.3
11,ENLFTGEDLDELEEVLNTLDLEE [E15V],3.09
12,ENLFTGEDLDELEEQLNTLDLEE [E15Q],4.93
13,ENLFTGEDLDELEEGLNTLDLEE [E15G],5.2
14,ENLFTGEDLDELEEFLNTLDLEE [E15F],3.37
15,ENLFTGEDLDELEEMLNTLDLEE [E15M],3.88
16,ENLFTGEDLDELEEALNTLDLEE [E15A],4.94
17,ENLFTGEDLDELEEDLNTLDLEE [E15D],3.74
18,ENLFTGEDLDELEETLNTLDLEE [E15T],5.01
19,ENLFTGEDLDELEERLNTLDLEE [E15R],5.29
20,ENLFTGEDLDELEEILNTLDLEE [E15I],4.04
21,ENLFTGEDLDELEELLNTLDLEE [E15L],3.29
22,ENLFTGEDLDELEEKLNTLDLEE [E15K],5.54
23,ENLFTGEDLDELEEYLNTLDLEE [E15Y],3.4
24,ENLFTGEDLDELEEHLNTLDLEE [E15H],4.29
25,ENLFTGEDLDELEENLNTLDLEE [E15N],4.61

row,Variant,protein stability index
1,ENLFTGEDLDELEEPLNTLDLEE [E15P],3.14
2,ENLFTGEDLDELEESLNTLDLEE [E15S],5.18
3,ENLFTGEDLDELEEWLNTLDLEE [E15W],4.08
4,ENLFTGEDLDELEEELNTLDLHE [E22H],5.94
5,ENLFTGEDLDELEEELNTLDLCE [E22C],5.58
6,ENLFTGEDLDELEEELNTLDLKE [E22K],5.67
7,ENLFTGEDLDELEEELNTLDLVE [E22V],5.55
8,ENLFTGEDLDELEEELNTLDLRE [E22R],5.7
9,ENLFTGEDLDELEEELNTLDLFE [E22F],5.82
10,ENLFTGEDLDELEEELNTLDLGE [E22G],5.33
11,ENLFTGEDLDELEEELNTLDLTE [E22T],5.41
12,ENLFTGEDLDELEEELNTLDLWE [E22W],5.39
13,ENLFTGEDLDELEEELNTLDLAE [E22A],5.34
14,ENLFTGEDLDELEEELNTLDLME [E22M],5.37
15,ENLFTGEDLDELEEELNTLDLSE [E22S],5.84
16,ENLFTGEDLDELEEELNTLDLYE [E22Y],5.5
17,ENLFTGEDLDELEEELNTLDLLE [E22L],5.79
18,ENLFTGEDLDELEEELNTLDLNE [E22N],5.37
19,ENLFTGEDLDELEEELNTLDLPE [E22P],5.17
20,ENLFTGEDLDELEEELNTLDLDE [E22D],5.75
21,ENLFTGEDLDELEEELNTLDLQE [E22Q],5.67
22,ENLFTGEDLDELEEELNTLDLIE [E22I],5.44
23,ENLFTGEDLDELEEELNTLDLED [E23D],5.47
24,ENLFTGEDLDELEEELNTLDLEA [E23A],5.96
25,ENLFTGEDLDELEEELNTLDLEP [E23P],5.67

row,Variant,protein stability index
1,ENLFTGEDLDELEEELNTLDLEK [E23K],5.61
2,ENLFTGEDLDELEEELNTLDLEF [E23F],5.07
3,ENLFTGEDLDELEEELNTLDLEI [E23I],5.81
4,ENLFTGEDLDELEEELNTLDLEM [E23M],4.61
5,ENLFTGEDLDELEEELNTLDLEY [E23Y],5.58
6,ENLFTGEDLDELEEELNTLDLEH [E23H],5.42
7,ENLFTGEDLDELEEELNTLDLEQ [E23Q],4.97
8,ENLFTGEDLDELEEELNTLDLEW [E23W],5.54
9,ENLFTGEDLDELEEELNTLDLEV [E23V],5.29
10,ENLFTGEDLDELEEELNTLDLEG [E23G],5.05
11,ENLFTGEDLDELEEELNTLDLEL [E23L],5.73
12,ENLFTGEDLDELEEELNTLDLES [E23S],5.89
13,ENLFTGEDLDELEEELNTLDLER [E23R],3.26
14,ENLFTGEDLDELEEELNTLDLEN [E23N],5.51
15,ENLFTGEDLDELEEELNTLSLEE [D20S],5.25
16,ENLFTGEDLDELEEELNTLMLEE [D20M],3.71
17,ENLFTGEDLDELEEELNTLGLEE [D20G],5.35
18,ENLFTGEDLDELEEELNTLELEE [D20E],4.52
19,ENLFTGEDLDELEEELNTLKLEE [D20K],5.11
20,ENLFTGEDLDELEEELNTLALEE [D20A],4.55
21,ENLFTGEDLDELEEELNTLFLEE [D20F],4.85
22,ENLFTGEDLDELEEELNTLHLEE [D20H],4.87
23,ENLFTGEDLDELEEELNTLVLEE [D20V],4.99
24,ENLFTGEDLDELEEELNTLPLEE [D20P],3.12
25,ENLFTGEDLDELEEELNTLTLEE [D20T],5.39

row,Variant,protein stability index
1,ENLFTGEDLDELEEELNTLNLEE [D20N],4.67
2,ENLFTGEDLDELEEELNTLRLEE [D20R],5.48
3,ENLFTGEDLDELEEELNTLYLEE [D20Y],5.22
4,ENLFTGEDLDELEEELNTLWLEE [D20W],4.2
5,ENLFTGEDLDELEEELNTLCLEE [D20C],5.38
6,ENLFTGEDLDELEKELNTLDLEE [E14K],5.14
7,ENLFTGEDLDELEMELNTLDLEE [E14M],3.55
8,ENLFTGEDLDELEWELNTLDLEE [E14W],3.7
9,ENLFTGEDLDELESELNTLDLEE [E14S],4.85
10,ENLFTGEDLDELECELNTLDLEE [E14C],3.99
11,ENLFTGEDLDELEYELNTLDLEE [E14Y],4.33
12,ENLFTGEDLDELEPELNTLDLEE [E14P],3.42
13,ENLFTGEDLDELEGELNTLDLEE [E14G],3.47
14,ENLFTGEDLDELEVELNTLDLEE [E14V],3.65
15,ENLFTGEDLDELEAELNTLDLEE [E14A],5.01
16,ENLFTGEDLDELETELNTLDLEE [E14T],4.12
17,ENLFTGEDLDELENELNTLDLEE [E14N],4.37
18,ENLFTGEDLDELEFELNTLDLEE [E14F],2.95
19,ENLFTGEDLDELEDELNTLDLEE [E14D],4.74
20,ENLFTGEDLDELEQELNTLDLEE [E14Q],4.56
21,ENLFTGEDLDELEHELNTLDLEE [E14H],5.05
22,ENLFTGEDLDELEIELNTLDLEE [E14I],3.3
